Data: the DeepSol protein solubility set

Test: soluble on expression in E. coli; label from the status in PepcDB or PDB records

Row | Sequence | soluble on expression in E. coli
1 | MQQDVSREHTINNGSSMADHDEHPIEQKEFYMLIGLDIGGTKIEICVLDKQGSMLYRQRIATPDNYSQFVDCVCSLIVDAEQATQPVDSIGIGLPGAVSPVTGLIKNANCTFLNGQDLSSDLQYRLGREVKLANDANCFALSEAIDGAGKESMVVFGAILGTGCGGSIVVNRQVLVGPNAICGEWGHNPLPGYHLEQDGAARYCYCGRQNCIERFISGSGFQDSYQALTGECITASEIMKRYKQQEPEAIHCYTQLIDHMARSFAGLVNVLDPDIIVLGGGLSNIDELYRDLPTATARHVFSDSAQVHFAKAVFGDSSGIRGAAWL | not soluble
2 | MGHHHHHHSHMEDYSQEDWGNHSQDLHGYPTDQELDEIPVTKRTLKIKQESSEEAQKRDIMQNIVQILESVQLKWELFQSWTDFSRLHLSNKLAIFGIGYNTRWKEDIRYHYAEISSQVPLGKRLREYFNSEKPEGRIIMTRVQKMNWKNVYYKFLEITISEARCLELHMEIDWIPIAHSKPTGGNVVQYLLPGGIPKSPGLYAIGYEECIERPLSPHMEQSSLDPGKEGRVDLETLSAQASLQVEIEPTRIIYCYLGIAEVRTLQQCLFLHFQANTKTFSKDWVGINGFLSQNCIVDPGVSPKSIYIKFVEVERDFLSAGSLVECLEKAIGYPLKFNN | not soluble
3 | MGSDKIHHHHHHVSEKMWGCCPNHWKSFGSSCYLISTKENFWSTSEQNCVQMGAHLVVINTEAEQNFITQQLNESLSYFLGLSDPQGNGKWQWIDDTPFSQNVRFWHPHEPNLPEERCVSIVYWNPSKWGWNDVFCDSKHNSICEMKKIYL | not soluble
4 | MSLNETYMMITFQSGMDYWKRCLKGFEDAAQALNVTVEYRGAAQYDIQEQITVLEQAIAKNPAGIAISAIDPVELTDTINKAVDAGIPIVLFDSGAPDSHAHSFLGTNNYNAGMNAAYKMAELLDGEGEVAVITLPNQLNHQERTTGFKETLEAEFPAIEVIAVEDGRGDSLHSRRVAHQLLEDYPNLAGIFATEANGGVGVGDAVRLESRAGEIQIISFDTDKGTLDLVDEGIISATLAQGTWNMGYWSLTYLFHLHHGLTEPQILQTREEAPLPLYVDTGITIVTDENVDYYYADEGHHHHHH | soluble
5 | MSTPTLSPSTEKLIPIIGLSVSGTFSPRPIATTAHSVVFKVDSQLYRREVIVKIVDRKSIPANVAEKFFPRELEITMKVRHPHIARCLAITRPAPTKFVIISDYYERGTLLEWILQKKRLKEHPLAATLFRQLIEAINYLHKRGIVHRDVKLENILIDGNGDIKLIDFGFARHIERRERSRSFCGTQPYTCPQITKYRPYEAYAADYYACGIVLFTMVTGKWPNMTENPNIYPEGYPSRSCRKLVSSLLDGNEMSRAGYDECVNSEWMGVHPVWMFANHAYFYEEVRGEDPNSSNCEMSEI | not soluble
6 | GSSWSAINPEYAARMRIQNRFKTGLDIAKYTAAIMRKDMAEYDADSSVYTQSLGCWHGFIGQQKLISIKKHLKTTNKRYLYLSGWMVAALRSDFGPLPDQSMHEKTAVSGLIEELYTFLRQADARELDLLFTGLDAARAAGDKAKEAELLAQIDNFETHVVPIIADIDAGFGNAEATYLLAKKMIEAGACCIQIENQVSDEKQCGHQDGKVTVPHIDFLAKINAVRYAFLELGVDDGVIVARTDSLGAGLTKQIAVTNEPGDLGDLYNSFLDCEEISESELGNGDVVIKREGKLLRPKRLASNLFQFRKGTGEDRCVLDCITSLQNGADLLWIETEKPHVGQIKAMVDRIREVIPNAKLVYNNSPSFNWTLNFRQQVFDAFVAEGKDVSAYDRNKLMSVEYDDTELAKVADEKIRTFQRDGSAHAGIFHHLITLPTYHTAALSTDNLAKGYFADEGMLAYVKGVQRQELRQGIACVKHQNMAGSDIGDNHKEYFAGEAALK | not soluble
7 | MDVMNAFDSQAEDSPTSLGRSLRRRPLARKKLSEMVEEELEQMIRRHEFGEGEQLPSERELMAFFNVGRPSVREALAALKRKGLVQINNGERARVSRPSADTIISELSGMAKDFLTHPGGIAHFEQLRLFFESSLVRYAAEHATDEQIALLTKALEINSQSLDDNALFIRSDVEFHRVLAEIPGNPIFMAIHVALLDWLIAARPSVPDRELHEHNNVSYQQHIVIVDAIRQRDPDKADRALQTHLNSVSATWHALGKKSQKMR | not soluble
8 | QSFWEEIAPPFISNEPNVKYIIPNMGIDSKGTIYVTVTKRIQQGANYTSEQLGMYYRPLGDNEQWWKHDPYFDDKIVADIQTDAYGRVYVCTTSSRDQEYQLYINEQNEWRCIFKTSVSTYEHGMAVFRSSTGVTYIGTRHHIFASGVNDFEFNTIYEDSTPMSCRFAEATNSGTIYLALMHETTMSTTILTYQNGEFVDISESELSNSIIASMCSNKEGD | not soluble
9 | MALANFDGPFDLLLQLIHSHKLDITEVALAQVTDEFIAYTKTLSSSAEDLDEVTEFLVVASTLLDLKAARLVPRGEVDSEEDLALLETRDLLFARLLQYRAYKQVADLFADWQRDAARAYPATLSLEEHHANLLPEVKIGKNADEFAELAAAVFRPKPDHVDTGHIHQVAVSVPEQAGRILNTLKVAGENTWVTFGALIADAELNMIVVGRFLALLELYKARAIGIEQPEPLQDMSVAWTGLDVDPAVVAASNWE | soluble
10 | MSLANAIRRSIPKLNRALVLPAFRSFHDEFSSKIPLEDIRKQTKGKEQHVPSARSIAAKYQVFRDTDAPVILDVDEERQIHEAGLQQPEKIHDLPDMYSGINLSRGKTGVYEIEDLVTVLRLNSAINIFVCTVPKDIKYVDYMCIVTGRSVRHMRGMAEFVRKVFKMKRHPSDIIPKIEGESSSDWMALDLGNIALHIFSTKAREQYDLESLWSVGSEFDREYNKPSEELVQLFEKHTIYLDDLKPLKKEGHHHHHH | not soluble
11 | MGSDKIHHHHHHVLSNPSQVVLRNIELFESKNVLLINHECDLLATALLEDAAKVTTLALDFNHFQRIKSHENARLQCHFGHQLPSTQTFDAVVLFYPKSKSLAPYLLNLAGRHLIPGGELVIVGEKKGGIRSITKQLPDYFDGGIKLDNARHCMLYSSSLLSEAPEIKLSDWVKDYVLSTPQGELTICNLVGVFSEKRLDEGTELLLEHLPTLKGRVLDFGCGAGVITAALLKANPDLELECVDINAMALASCELTLAANGMQAKVYASDGLTQTQGMFDAIISNPPFHDGLDSTTEIATRFVQESEAQLKSGGIFQIVANRHLPYSDTIAKFFKTVNVAAENNKYKIYANRKA | not soluble
12 | MGSDKIHHHHHHMKEILLKAENVRAYYKLEKVSVKAVDGLSFEILEDEVIGVVGESGCGKTTLSNVIFMNMVKPLTLVDGKIFLRVNGEFVELSSMTRDEVKRKFWGKEITIIPQAAMNALMPTIRMEKYVRHLAESHGIDEEELLDKARRRFEEVGLDPLWIKRYPFELSGGMRQRAVIAIATILNPSLLIADEPTSALDVVNQKVLLKVLMQMKRQGIVKSIIFITHDIATVRQIADRMIIMYAGKIVEFAPVESLLEKPLHPYTQGLFNSVLTPEPEVKKRGITTIPGAPPNLINPPSGCRFHPRCPHAMDVCKEKEPPLTEIEPGRRVACWLYMEERA | not soluble
13 | MSNNDCISTDKVDLDKKQIKKFLKQINISQLTKMIQFIDNKLLSDWDFNCLTYFDESEYPFFDINLSLICTIDHNIPINIIINFLCFVEKQYNNVPYHNTIHATMVTQKFFCLAKKLGIYDDLEYKIKLVMFISGICHDIGHPGYNNLFFVNSLHPLSIIYNDISVLENYHASITFKILQLNQCNILKNFSEKDFRMMRSYIIELILSTDMKHHFEIISKFRIRRENEDFDYIKNSDDLLILTKMIIKSADISHGSVSWSEHYCWCQRVLSEFYTQGDEELKNKMPLSPLCDRTKHNEVCKSQITFLKFVVMPLFEELSHIDNNKFIKSFCLKRLNSNCIMWDTLMKEEKTIE | soluble
14 | MVALFPSSPAEDLLAEGPCVMTGKGLHQLLLDRWGYSYGLQLRRTQGKIFLQIMWKYLEQASFPMDEGEYFSHLNEVASYLVALGAAEAIAQTIRETREKPRLGKAVSIPIELGARASEWFPDLEHHHHHH | soluble
15 | IVMAETKETVIDEVVVTGTGAQKKVTVTGAVTTVDVSQLRTPTASITNALAGNVAGILARQTSGQPGSNISEFWIRGISTFGAGGSALVLVDGFERDMNEINVEDIQDFSVLKDASATAIYGSRGANGVVLITTKRGKEGK | not soluble
